Laboratory results reported in patent US20100233758A1.

Molecular target: glycoprotein D of HSV-1 KOS/tk12 (wild type HSV-1 KOS carrying a lacZ reporter gene) (herpes simplex virus 1 (HSV-1 KOS))
Test: cell-based or functional assay

Substance: recombinant sHveA102 protein (receptor)
- percentage of cells infected with the virus (X-gal staining): 70%
